Test results published in EP4471048A1, “PEPTIDE INHIBITORS OF INTERLEUKIN-23 RECEPTOR” (Zealand Pharma A/S, priority 2023, dated 2024).
Where two headings read alike, the source gives them in different places. *1 amine or outer side, *2 acyl side, *3 side chain or, on linkers, in order; H or OH if unused. Bridges are numbered along the chain shown (N, C = ends). [ ]: non-standard residue; d: D form. The star is where a group is joined. K(G) = Lys(Gly): lysine with a glycine on the side-chain amine, (2S)-2-amino-6-[(2-aminoacetyl)amino]hexanoic acid, O=C(CN[*:3])NCCCC[C@H](N[*:1])C(=O)[*:2]; 4‑Aminomethyl‑phenylacetyl = 4-aminomethyl-phenylacetyl unit, its amine closes the lactam, O=C(Cc1ccc(CN[*:1])cc1)[*:2]; γDab = iso-Dab: Dab joined to preceding residue by its side-chain amine, O=C([C@H](CCN[*:1])N[*:3])[*:2]; Q(pyrrolidin) = modified Gln, O=C(CC[C@H](N[*:1])C(=O)[*:2])N1CCCC1; 2‑Amino‑6‑carboxyhexanoyl = 2-aminoheptanedioic acid residue; Propanoyl(3-(3-pyridyl)) = O=C(CCc1cccnc1)*; NH(4-(3-pyridyl)butyl) = c1cncc(CCCCN*)c1; NH(2-(3-pyridyl)ethyl) = c1cncc(CCN*)c1; Phe(4-Me) = Cc1ccc(C[C@H](N)C(=O)O)cc1; 2Nal = N[C@@H](Cc1ccc2ccccc2c1)C(=O)O; AEF = NCCOc1ccc(C[C@H](N)C(=O)O)cc1; 3Pal = N[C@@H](Cc1cccnc1)C(=O)O; β3hE = N[C@@H](CCC(=O)O)CC(=O)O; Aad = N[C@@H](CCCC(=O)O)C(=O)O; αMeL = CC(C)C[C@](C)(N)C(=O)O; dOrn = NCCC[C@@H](N)C(=O)O; dDab = NCC[C@@H](N)C(=O)O; Orn = NCCC[C@H](N)C(=O)O; Dab = NCC[C@H](N)C(=O)O; βAla = NCCC(=O)O

T1: human IL-23R endogenously expressed on DB cells (human, UniProt Q5VWK5 24-629)
T1 sequence (looked up): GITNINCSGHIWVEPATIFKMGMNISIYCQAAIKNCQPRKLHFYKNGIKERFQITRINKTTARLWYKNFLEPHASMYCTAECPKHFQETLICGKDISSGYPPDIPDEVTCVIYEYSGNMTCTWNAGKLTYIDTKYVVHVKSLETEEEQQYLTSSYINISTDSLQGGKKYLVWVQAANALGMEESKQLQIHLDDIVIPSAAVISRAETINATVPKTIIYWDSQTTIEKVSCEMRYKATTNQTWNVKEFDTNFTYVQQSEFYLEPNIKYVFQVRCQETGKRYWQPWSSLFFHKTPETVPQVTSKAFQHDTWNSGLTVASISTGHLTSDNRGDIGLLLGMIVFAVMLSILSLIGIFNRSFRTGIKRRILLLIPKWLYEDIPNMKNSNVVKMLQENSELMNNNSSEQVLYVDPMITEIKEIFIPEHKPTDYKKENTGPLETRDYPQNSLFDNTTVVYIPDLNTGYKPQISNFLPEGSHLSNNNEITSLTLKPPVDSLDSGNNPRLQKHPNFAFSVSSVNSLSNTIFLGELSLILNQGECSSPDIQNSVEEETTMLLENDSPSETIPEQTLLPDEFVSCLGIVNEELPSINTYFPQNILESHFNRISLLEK

T2: Nluc-IL23R fusion protein (human, UniProt Q5VWK5 22-629)
T2 construct: range 22-629; Stably expressed in HEK293 cells; also called hIL-23R; human IL-23R; not shown: Nanoluc protein (N1371, Promega) at the N-terminus, after a secretion signal
T2 sequence (looked up): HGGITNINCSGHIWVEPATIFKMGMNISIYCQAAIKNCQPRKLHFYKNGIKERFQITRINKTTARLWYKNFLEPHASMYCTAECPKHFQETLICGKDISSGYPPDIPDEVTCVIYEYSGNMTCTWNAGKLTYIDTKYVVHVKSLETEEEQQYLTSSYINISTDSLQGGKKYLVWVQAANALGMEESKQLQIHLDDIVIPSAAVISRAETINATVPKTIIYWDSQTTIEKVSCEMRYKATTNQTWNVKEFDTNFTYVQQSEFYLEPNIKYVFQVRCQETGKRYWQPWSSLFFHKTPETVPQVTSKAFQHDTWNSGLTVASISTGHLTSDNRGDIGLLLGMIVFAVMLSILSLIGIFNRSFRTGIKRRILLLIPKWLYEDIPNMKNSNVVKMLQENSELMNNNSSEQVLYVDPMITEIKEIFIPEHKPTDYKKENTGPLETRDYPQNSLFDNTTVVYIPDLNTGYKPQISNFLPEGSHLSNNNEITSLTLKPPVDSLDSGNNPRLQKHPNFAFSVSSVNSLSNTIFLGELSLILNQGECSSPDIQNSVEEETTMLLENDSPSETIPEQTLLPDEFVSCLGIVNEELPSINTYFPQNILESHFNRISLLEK


Assays:
[1] = molecular target: human IL-23R endogenously expressed on DB cells (human) (UniProt Q5VWK5); experiment: cell-based or functional assay
[2] = molecular target: T1, human IL-23R endogenously expressed on …; experiment: cell-based or functional assay
[3] = molecular target: T2, Nluc-IL23R fusion protein; experiment: BRET competition vs TAMRA-labelled peptide, Nluc-IL23R membranes
[4] = molecular target: T2, Nluc-IL23R fusion protein; experiment: as above; remark: listed apart in the source
[5] = molecular target: T2, Nluc-IL23R fusion protein; experiment: BRET competition vs TAMRA-labelled peptide, Nluc-IL23R membranes; Ki by Cheng-Prusoff

hIL-23 (pSTAT3) antagonist % inhibition [2] | hIL-23 (pSTAT3) antagonist IC50 [2] | % displacement [3] | IC50 [3] | Molecule | further results
– | – | – | – | human IL-23 (from UniProt Q9NPF7 20-189; P29460 23-328) (ligand) | EC80 of hIL-23 (phospho-STAT3 in DB cells) [1]: 1.7 nM
99% | 13 nM | 102% | – | XQTWQCXWXENG ([Ac]-[Abu](16i)QTWQC(16i)[Y(2-aminoethoxy)]W[2-Me-Lys]ENG-[NH2]; (16i) [2,7] thioether bridge (Abu and Cys form a cystathionine)) [Compound C] | –
98% | 42 nM | – | – | [4‑Aminomethyl‑phenylacetyl]SEW[Q(pyrrolidin)][Dab][AEF][2Nal][αMeL]E[Dab]-NH2 (lactam N-10; bridge 3-6; also: (2c) bridge type not defined) [Ref 146] | % displacement [4]: 105%; IC50 [4]: 1.2 nM; Ki [5]: 1.01 nM
– | – | 99% | – | KIVWQE[AEF][2Nal][αMeL][β3hE][3Pal]-NHMe (lactam 1-10, N-6, The partner of the (1c) bridge is printed as (cyclo1)) [Compound 61] | –
102% | 25 nM | – | – | [K(G)]WQE[AEF][2Nal][αMeL]E[Dab][3Pal]-NHMe (lactam 1-8, N-4; SMILES CNC(=O)[C@H](Cc1cccnc1)NC(=O)[C@H](CCN)NC(=O)[C@@H]1CCC(=O)NCC(=O)NCCCC[C@@H]2NC(=O)CC[C@H](NC(=O)[C@H](CCC(N)=O)NC(=O)[C@H](Cc3c[nH]c4ccccc34)NC2=O)C(=O)N[C@@H](Cc2ccc(OCCN)cc2)C(=O)N[C@@H](Cc2ccc3ccccc3c2)C(=O)N[C@@](C)(CC(C)C)C(=O)N1) [Compound 46] | % displacement [4]: 104%
99% | 100 nM | 96% | 280 nM | KTVWQE[Phe(4-Me)][2Nal][αMeL][γDab](Propanoyl(3-(3-pyridyl))) (lactam 1-C, N-6; also: iso-Dab joined to preceding residue via its side-chain amine) [Compound 24] | –
– | – | 99% | – | KIVWQE[AEF][2Nal][αMeL][β3hE]-{NH(2-(3-pyridyl)ethyl)} (lactam 1-10, N-6) [Compound 65] | –
99% | 2.4 nM | – | – | ETWQE[AEF][2Nal][αMeL]K[Dab][3Pal]-NHMe (lactam 1-9, N-5; SMILES CNC(=O)[C@H](Cc1cccnc1)NC(=O)[C@H](CCN)NC(=O)[C@@H]1CCCCNC(=O)CC[C@@H]2NC(=O)CC[C@H](NC(=O)[C@H](CCC(N)=O)NC(=O)[C@H](Cc3c[nH]c4ccccc34)NC(=O)[C@H]([C@@H](C)O)NC2=O)C(=O)N[C@@H](Cc2ccc(OCCN)cc2)C(=O)N[C@@H](Cc2ccc3ccccc3c2)C(=O)N[C@@](C)(CC(C)C)C(=O)N1) [Compound 39] | % displacement [4]: 98%
– | – | 100% | – | ETWQE[AEF][2Nal][αMeL][Orn][Dab][3Pal]-NHMe (lactam 1-9, N-5) [Compound 40] | –
– | – | 98% | 49 nM | KSVWQE[AEF][2Nal]GE-{NH(4-(3-pyridyl)butyl)} (lactam 1-10, N-6; SMILES CC(C)[C@@H]1NC(=O)[C@H](CO)NC(=O)[C@@H]2CCCCNC(=O)CC[C@@H](C(=O)NCCCCc3cccnc3)NC(=O)CNC(=O)[C@H](Cc3ccc4ccccc4c3)NC(=O)[C@H](Cc3ccc(OCCN)cc3)NC(=O)[C@H](CCC(=O)N2)NC(=O)[C@H](CCC(N)=O)NC(=O)[C@H](Cc2c[nH]c3ccccc23)NC1=O) [Compound 31] | –
– | – | 97% | 14 nM | EWQEXXXXXX ([iso-Glu](1c)^‡(6c)^†WQE(6c)[Y(2-aminoethoxy)][2-Nal][2-Me-Leu][Dab](1c)[Dab][3-(3-Pyridyl)-Ala]-[NHMe]; (1c) [2,11] lactam; (6c) [2,7] lactam; ^† alpha-amine in bridge; ^‡ alpha-carboxylic acid in bridge) [Compound 107] | –
104% | 0.22 nM | 104% | – | [dOrn]TVWQE[AEF][2Nal][αMeL][Aad][Dab][3Pal]-NH2 (lactam 1-10, N-6; SMILES CC(C)C[C@]1(C)NC(=O)[C@H](Cc2ccc3ccccc3c2)NC(=O)[C@H](Cc2ccc(OCCN)cc2)NC(=O)[C@@H]2CCC(=O)N[C@H](CCCNC(=O)CCC[C@@H](C(=O)N[C@@H](CCN)C(=O)N[C@@H](Cc3cccnc3)C(N)=O)NC1=O)C(=O)N[C@@H]([C@@H](C)O)C(=O)N[C@@H](C(C)C)C(=O)N[C@@H](Cc1c[nH]c3ccccc13)C(=O)N[C@@H](CCC(N)=O)C(=O)N2) [Compound 6] | –
– | – | 103% | – | [dDab]TVWQD[AEF][2Nal][αMeL][2‑Amino‑6‑carboxyhexanoyl][Dab][3Pal]-NH2 (lactam 1-10, N-6) [Compound 9] | –
100% | 15 nM | – | – | KGWQE[AEF][2Nal][αMeL]E[Dab][3Pal]-NHMe (lactam 1-9, N-5; SMILES CNC(=O)[C@H](Cc1cccnc1)NC(=O)[C@H](CCN)NC(=O)[C@@H]1CCC(=O)NCCCC[C@@H]2NC(=O)CC[C@H](NC(=O)[C@H](CCC(N)=O)NC(=O)[C@H](Cc3c[nH]c4ccccc34)NC(=O)CNC2=O)C(=O)N[C@@H](Cc2ccc(OCCN)cc2)C(=O)N[C@@H](Cc2ccc3ccccc3c2)C(=O)N[C@@](C)(CC(C)C)C(=O)N1) [Compound 44] | % displacement [4]: 100%
– | – | 105% | 4.9 nM | [dDab]TWQD[AEF][2Nal][αMeL][2‑Amino‑6‑carboxyhexanoyl][Dab][3Pal]-NH2 (lactam 1-9, N-5) [Compound 15] | –
– | – | 91% | 840 nM | KTVWQE[Phe(4-Me)][2Nal][αMeL][γDab](6‑(3-pyridyl)hexanoyl) (lactam 1-C, N-6; also: iso-Dab joined to preceding residue via its side-chain amine) [Compound 25] | –
99% | 0.19 nM | 104% | – | [dDab]TVWQE[AEF][2Nal][αMeL][2‑Amino‑6‑carboxyhexanoyl][Dab][3Pal]-NH2 (lactam 1-10, N-6) [Compound 7] | –
– | – | 99% | 0.076 nM | EIVWQEXXXXXX (E(1c)(6c)^†IVWQE(6c)[Y(2-aminoethoxy)][2-Nal][2-Me-Leu][K(Me)](1c)[Dab][3-(3-Pyridyl)-Ala]-[NHMe]; (1c) [2,11] lactam; (6c) [2,7] lactam; ^† alpha-amine in bridge) [Compound 74] | –
100% | 58 pM | – | – | K[βAla]WQE[AEF][2Nal][αMeL]E[Dab][3Pal]-NHMe (lactam 1-9, N-5; SMILES CNC(=O)[C@H](Cc1cccnc1)NC(=O)[C@H](CCN)NC(=O)[C@@H]1CCC(=O)NCCCC[C@@H]2NC(=O)CC[C@H](NC(=O)[C@H](CCC(N)=O)NC(=O)[C@H](Cc3c[nH]c4ccccc34)NC(=O)CCNC2=O)C(=O)N[C@@H](Cc2ccc(OCCN)cc2)C(=O)N[C@@H](Cc2ccc3ccccc3c2)C(=O)N[C@@](C)(CC(C)C)C(=O)N1) [Compound 45] | % displacement [4]: 100%
